Target: T1, CD19 (Homo sapiens, UniProt P15391)
T1 construct: endogenous in cells; host or cells: RAJI cells in vitro
T1 sequence (P15391 20-556): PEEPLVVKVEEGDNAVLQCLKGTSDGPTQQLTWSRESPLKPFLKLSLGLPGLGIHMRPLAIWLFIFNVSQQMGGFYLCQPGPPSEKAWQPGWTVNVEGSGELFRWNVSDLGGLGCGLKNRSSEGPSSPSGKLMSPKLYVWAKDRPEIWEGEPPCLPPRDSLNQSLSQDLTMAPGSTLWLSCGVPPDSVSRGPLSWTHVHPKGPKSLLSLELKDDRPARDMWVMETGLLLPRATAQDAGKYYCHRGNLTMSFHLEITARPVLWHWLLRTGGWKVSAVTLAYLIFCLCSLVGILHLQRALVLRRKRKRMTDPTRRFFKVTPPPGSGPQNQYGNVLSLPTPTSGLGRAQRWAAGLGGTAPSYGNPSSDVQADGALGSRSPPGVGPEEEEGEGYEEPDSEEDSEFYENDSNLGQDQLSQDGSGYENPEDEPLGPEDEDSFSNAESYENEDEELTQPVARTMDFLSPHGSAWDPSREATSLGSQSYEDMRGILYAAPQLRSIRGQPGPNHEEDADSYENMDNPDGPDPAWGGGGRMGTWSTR
Test: Jurkat-NFAT-EGFP (J-N-G) reporter: EGFP induction upon co-culture with RAJI cells
Format: cell-based
Settings: co-culture with CD19+ve RAJI cells, compared to wild-type EF1α promoter
Text: Jurkat cell line (clone E6-1) engineered with a NFAT-dependent EGFP (or GFP) reporter gene was a gift from Dr. Arthur Weiss at University of California San Francisco and have been described to study CAR-signaling ((Wu, C Y et al., Science 350:293-302, 2015). Jurkat cells were maintained in RPMI-1640 medium supplemented with 10% FBS, penicillin and streptomycin.
Use of strong viral promoters in adoptive cellular therapy applications carries the risk of activation of downstream oncogenes and development of cancer. As such, human Elongation Factor 1α (EF1α) promoter is frequently used in adoptive cellular therapy applications as it provides strong expression and is human in origin. A limitation of EF1α promoter, however, is its relatively large size. Although a mini-EF1α promoter has been described, it is much weaker as compared to the EF1α promoter. To determine whether an internal deletion in the EF1α promoter would allow shortening of its length while preserving its promoter strength, a SacII fragment was deleted from the EF1α promoter. […] The vectors also co-expressed EGFP and blasticidin resistance gene via 2A linkers. Lentiviruses were generated in 293FT cells and used to infect J-N-G cells.

B1: EF1α-D-SacII promoter: EF1α promoter from which an internal SacII fragment was deleted (nucleic acid)
DNA: GTGAGGCTCCGGTGCCCGTCAGTGGGCAGAGCGCACATCGCCCACAGTCCCCGAGAAGTTGGGGGGAGGGGTCGGCAATTGAACCGGTGCCTAGAGAAGGTGGCGCGGGGTAAACTGGGAAAGTGATGTCGTGTACTGGCTCCGCCTTTTTCCCGAGGGTGGGGGAGAACCGTATATAAGTGCAGTAGTCGCCGTGAACGTTCTTTTTCGCAACGGGTTTGCCGCCAGAACACAGGTAAGTGCCGTGTGTGGTTCCCGCGGGCGGCGACGGGGCCCGTGCGTCCCAGCGCACATGTTCGGCGAGGCGGGGCCTGCGAGCGCGGCCACCGAGAATCGGACGGGGGTAGTCTCAAGCTGGCCGGCCTGCTCTGGTGCCTGGCCTCGCGCCGCCGTGTATCGCCCCGCCCTGGGCGGCAAGGCTGGCCCGGTCGGCACCAGTTGCGTGAGCGGAAAGATGGCCGCTTCCCGGCCCTGCTGCAGGGAGCTCAAAATGGAGGACGCGGCGCTCGGGAGAGCGGGCGGGTGAGTCACCCACACAAAGGAAAAGGGCCTTTCCGTCCTCAGCCGTCGCTTCATGTGACTCCACGGAGTACCGGGCGCCGTCCAGGCACCTCGATTAGTTCTCGACCTTTTGGAGTACGTCGTCTTTAGGTTGGGGGGAGGGGTTTTATGCGATGGAGTTTCCCCACACTGAGTGGGTGGAGACTGAAGTTAGGCCAGCTTGGCACTTGATGTAATTCTCCTTGGAATTTGCCCTTTTTGAGTTTGGATCTTGGTTCATTCTCAAGCCTCAGACAGTGGTTCAAAGTTTTTTTCTTCCATTTCAGGTGTCGTGA
B1 was tested. Which “induction of EGFP expression by FMC63-BBz CAR” value did it give?
The value was “Near equivalent inducton of EGFP expression”.

Source: patent US12570711B2, “Platforms for co-stimulation, novel car designs and other enhancements for adoptive cellular therapy” (Angeles Therapeutics, Inc., priority 2017, dated 2026)
